± gives the half width of the 95% confidence interval.
Tests used:
[1] = folding stability dG unfold from chymotrypsin proteolysis; higher = more stable
Summary of the method: (§1)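 How resistant each design was to proteolysis was captured as K50, inferred by Bayesian fitting of sequencing counts. Unfolding free energy was then derived relative to a sequence-predicted unfolded-state K50 and a shared folded-state K50, per protease or combined. Digestion used trypsin and chymotrypsin at 11 threefold-diluted concentrations plus a no-protease condition, on mini-proteins under 80 residues without cysteine in a PA-tagged cDNA display construct. Designs were kept only when AlphaFold2 dimer inter-PAE was above 15.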

[2] = folding stability dG unfold (combined trypsin and chymotrypsin); higher = more stable
Summary of the method: as §1

[3] = folding stability dG unfold from trypsin proteolysis; higher = more stable
Summary of the method: as §1

Row | Sequence | folding stability dG unfold [1] [kcal/mol] | folding stability dG unfold [2] [kcal/mol] | folding stability dG unfold [3] [kcal/mol]
1 | SAGGGMRAVEVTVTLTVPSSTSVEEAVERVKAEFEAAGLEAEPVSVTVTPVPGSVTVTVRLRVLRPPASAGG [r13_351_JUSTAS] | 3.48 ± 0.049 | 3.19 ± 0.063 | 2.31 ± 0.04
2 | SAGGGMSEEYVKKLFESLGFTKLETREYPGLKVTTFSAKDLTVVAYPDGTIEIFDKNGNLIKTDKGLSAGGS [r8_147_JUSTAS] | 1.82 ± 0.03 | 1.54 ± 0.049 | 1.06 ± 0.021
3 | SAGGGMSGKAISEEEIEALIKEEAEKRGLKIEIKEITRPPGTVTVTVKITEGDSVTEKTIDFPILPEPSAGG [r13_652_JUSTAS] | 1.64 ± 0.054 | 1.59 ± 0.06 | 1.54 ± 0.039
4 | SAGGGMTTTTVTVTLDVPPDAGEEEVERLAEEIAAELKAAHPNITVTVEKITIDEKNATFTITVTTPGSAGG [r13_805_JUSTAS] | 2.928 ± 0.029 | 3.03 ± 0.058 | 3.19 ± 0.096
5 | SAGGGMTVTRTIYLPNMTEEEKKALAEEIAEEVREELEKRGYPVKEITVDVKFIPGKGIVIVTVTLKLSAGG [r13_212_JUSTAS] | 3.64 ± 0.089 | 3.52 ± 0.055 | 3.29 ± 0.09
6 | SAGGGMTVVRITHPDGTPLTIEYDPNNPVATVHFADGTTETIPMPPDKTIEDLIAKLPEDAEVEVHDRSAGG [r13_696_JUSTAS] | 1.19 ± 0.026 | 0.847 ± 0.14 | 0.321 ± 0.078
7 | SAGGGMVVYVTVPPDDPRVEELKERLAADPRVSDVTVEKVEEYPDTVRLRFTFPGDPAVVAAARALLSAGGS [r16_394_JUSTAS] | 1.51 ± 0.096 | 1.32 ± 0.053 | 0.995 ± 0.059
8 | SAGGGPAPVVVTVEYDPETREQRVTARAGGGGVVFELSLPLGDKTVTVKVIPVGDKVLLEVEWEVKGSAGGS [r16_631_TrMRF] | 3.06 ± 0.13 | 2.91 ± 0.15 | 2.95 ± 0.16
9 | SAGGGPDLPGEVEVEVEITRVEFDPETGELRVEAEATFPDGLVAKVKITFPEPGDLDKFEVEVEVEPASAGG [r13_894_TrMRF] | 1.68 ± 0.071 | 1.59 ± 0.035 | 1.5 ± 0.052
10 | SAGGGPMPIDVEVLEVTPDSVRIRYPETGAVFTFDPNKEHEFTLPDGSRITVTFKPDGSVSATVTVPGSAGG [r13_352_JUSTAS] | 4.13 ± 0.13 | 4.16 ± 0.14 | 4.35 ± 0.3
11 | SAGGGPMPVEKEVEITLEVDPSDPASVRARLEALAASRGVEEITEITEETLPDGSRRVTAKVKWLLPVSAGG [r13_222_JUSTAS] | 0.397 ± 0.15 | 0.875 ± 0.087 | 1.15 ± 0.067
12 | SAGGGPNTYVKVTLPLPPNKADVVEEIAKLFPNVKVEVTTTPENGTLPVTFYFPSPDGSPDAKVSIFSAGGS [r8_267_TrMRF] | 1.11 ± 0.31 | 0.754 ± 0.15 | 0.407 ± 0.15
13 | SAGGGQPVKITEIENIDPNNGKITFEIVDPDDGRPLKIKIPVQRRPNGKPYLQIEIEVDGKKWEIMFMSAGG [r13_993_TrROS] | 1.67 ± 0.16 | 1.87 ± 0.15 | 1.7 ± 0.17
14 | SAGGGRTITVTARFTDPATGTTTTETITIDVPSDTSEEEKKEIAEKTVKEIAEKNGVKSEIESISITSAGGS [r8_312_JUSTAS] | 2.3 ± 0.17 | 4.32 ± 0.7 | 4.24 ± 0.29
15 | SAGGGSMVFVEFPQGGKTVRVDVDLEKGVLRVRFPGEGAVLEYPVRDPEAVVRELTPADVPVRAYPESAGGS [r8_95_JUSTAS] | 0.405 ± 0.11 | 0.439 ± 0.072 | 0.346 ± 0.078
16 | SAGGGSRTLTRGDKTYVFTTAPPPTGGRYVTLTVVDPATGAPAPVYTMDVTDGTDEEALARLLAAPLSAGGS [r16_378_JUSTAS] | 0.847 ± 0.091 | 0.581 ± 0.038 | -0.038 ± 0.11
17 | SAGGGSSMPVPVRVAEFNVPDSRPEELIERAKELLEADEIDVLVVPSPAAQEALKAAFPDFPVPVLVRSAGG [r13_353_JUSTAS] | -0.339 ± 0.17 | -0.459 ± 0.11 | -0.646 ± 0.085
18 | SAGGGSVPAEHLVSVSYEKPPWSDEPVITVTALKGGKPVTFTIPSSLSEEEALEAVEKAIAAGPFALGSAGG [r13_225_JUSTAS] | 0.579 ± 0.13 | 0.675 ± 0.099 | 0.638 ± 0.055
19 | SAGGGSVSTSVTPDPATGLVTVTVTLTRTTPTPSPGTTTTTTTITVTVQVPPSYQPTATITVSVPASLSAGG [r13_450_JUSTAS] | 3.91 ± 0.12 | 3.72 ± 0.082 | 3.49 ± 0.16
20 | SAGGGTATVTTAEAELPGDVRVTTATVTLPDGSAVRVVTLSSSVPNATATVVVPLPANGPGEGVIVLPSAGG [r13_323_TrMRF] | 0.785 ± 0.056 | 1.15 ± 0.069 | 1.44 ± 0.073
21 | SAGGGTEIEYNPETGEIIVKVNPLIPYPFEPGSETIPLPFEGDPEAAEQEIRDLIEEHPDASFDIKPSSAGG [r13_284_TrMRF] | -1.32 ± 0.17 | 0.0628 ± 0.061 | 0.638 ± 0.085

Row | Sequence | folding stability dG unfold [1] [kcal/mol] | folding stability dG unfold [2] [kcal/mol] | folding stability dG unfold [3] [kcal/mol]
22 | SAGGGTYYLIFKITETKTDPKTGKTTTSEKVIVDPLENPGSISAEEIAKLKEELEPKGYTVEIEIKPKSAGG [r13_926_JUSTAS] | 1.41 ± 0.27 | 1.07 ± 0.23 | 0.654 ± 0.045
23 | SAGGGVEITREPDPAGGRRVRFTDPSGRTFEVEITPDSLRITRPDGTTRSAAVPPDADLRLPYSELASAGGS [r16_203_JUSTAS] | 0.418 ± 0.041 | 0.134 ± 0.057 | -0.625 ± 0.12
24 | SAGGGVKFELVDIESDGDGKYIAKIKVYNENGELIEEIEIEVKGLKNVTLTIPLINKPKKIEIKVTPESAGG [r13_427_TrMRF] | 1.51 ± 0.093 | 1.21 ± 0.12 | 0.752 ± 0.03
25 | SAGGGVMIAIKKIDPKNGKLEIEIWMPEGFEDPDQRKEMLEMADSLADRLQELHGIPVKVTIHPFPNSAGGS [r16_304_TrROS] | 2.27 ± 0.076 | 2.31 ± 0.12 | 2.31 ± 0.083
26 | SAGGGWPWVVKFEPPDGKEMEFVIPFNPKKNWYWIKMPGNGKTVPVPLDDLEEQPGFQIDEIEPLDDLSAGG [r13_994_TrROS] | 1.31 ± 0.48 | 1 ± 0.27 | -0.0768 ± 0.33
27 | SAGGIDLDNMSPEEAKERARDTVREFRELFPPEKKYKFKIKVTIDYRDPGNGRQRTVTVEAPIEFTPDSAGG [r13_385_TrROS] | 0.862 ± 0.28 | 0.753 ± 0.24 | 0.636 ± 0.12
28 | SAGGIELKINIQMPAEEAVEFIRNFIEELGYEIEDIEVERDPENGMVSVPIEFEIKPVPPVDPEDQKSAGGS [r16_584_TrROS] | 0.166 ± 0.26 | 0.315 ± 0.19 | 0.144 ± 0.076
29 | SAGGIELTIPLPNGMLIKIKIESIHIQPVPVWRKKKDPDGKPKDWEPQPFTFSISIRFSIEIYDPDDLSAGG [r13_848_TrROS] | 5.07 ± 0.16 | 4.97 ± 0.35 | 3.47 ± 0.2
30 | SAGGIEVEAESERVEGGVLRVTVTAADPDGVPIVLELPVPPGAPEITEEEARELAVEAALKVAAELASAGGS [r8_123_TrMRF] | 0.517 ± 0.034 | 0.699 ± 0.053 | 0.887 ± 0.034
31 | SAGGIKEAFEAGVEVKDVEVPVLFPDGSEAEVVEVDPVDDGVRVVLRNPVTGELFEREIPPELIEPRPSAGG [r13_340_TrMRF] | 0.172 ± 0.053 | 0.484 ± 0.07 | 0.653 ± 0.019
32 | SAGGIKIHVEREGNYYRIKIKWPNNNEISIPFDSPEDAEEQAEEQLQKQFPNMPPENVKIDEIEPYPPSAGG [r13_887_TrROS] | 0.504 ± 0.15 | 0.469 ± 0.099 | 0.173 ± 0.11
33 | SAGGIKIPPGQEIEMPFKVRVGGEPYPFRIEIKILKVNPDNGHFLIKMEIEDPENGQPIAEFTFFIPPSAGG [r13_582_TrROS] | 4.4 ± 0.23 | 3.35 ± 0.39 | 2.64 ± 0.25
34 | SAGGIKLPPWFKKLADILQEEGYKIRIEPVNGYWVIRVDGKVYPSPEDMEDNRDDPGVDRVIVIPFPSAGGS [r16_275_TrROS] | 3.45 ± 0.12 | 3.26 ± 0.15 | 2.78 ± 0.14
35 | SAGGITIEWERNPDGYPNIKIQIRAPNGKKVAKLPIQFDPNDGGMTKLDLKKLLKEINLPPNVEVEFISAGG [r13_479_TrROS] | 1.22 ± 0.13 | 1.34 ± 0.13 | 1.45 ± 0.05
36 | SAGGITVEVEYERTEGGYYRVTVTLRDPDGNPIEIEYPMPPGDPGMTQDEMKDKAVEWALKIAQELNSAGGS [r8_123_TrROS] | 3.971 ± 0.031 | 3.96 ± 0.088 | 3.94 ± 0.12
37 | SAGGIVAADVSPDGTVYPISPEAVRALVDAIRDRYGFDVKVTITEARYGDRWVTVIPIELTGLSPEEASAGG [r13_790_TrMRF] | 1.54 ± 0.02 | 1.5 ± 0.08 | 1.31 ± 0.04
38 | SAGGIWIKVPDGGWVRIQIEHPGNGRPREETIPGGDIKDLIKSLSSSPDFPNYKVKIEVWDGGKPKPISAGG [r13_914_TrROS] | 1.71 ± 0.058 | 1.46 ± 0.14 | 0.923 ± 0.03
39 | SAGGIYRVEIEIPGGNTIEFMIPGATEEMAKEIANELAQHFNPGDIKIEVYPIPPVKVDPEDGKWKWSAGGS [r8_167_TrROS] | 1.41 ± 0.1 | 1.13 ± 0.095 | 0.579 ± 0.039
40 | SAGGKAKIVEIKYNEETGTVTIKIKNEDGEEYEISIKLPPGAKIEIDEDGNITIKDIPAEQIEVRKVSAGGS [r16_515_TrROS_Hall] | 1.68 ± 0.056 | 1.46 ± 0.12 | 0.895 ± 0.03
41 | SAGGKDIKVTVEKVGDELYILVEASKEEVEALLKAGKKEITIEINGKKVKVKAVKLPDGTVLFRVRLESAGG [r13_171_TrROS_Hall] | 4.23 ± 0.052 | 3.96 ± 0.065 | 3.28 ± 0.064
42 | SAGGKEEKVVEIEIKKEKLKKSKDGKVYSAEEIAKKLKKELPEENVEVEIVSYDKEKGVVKIKIKVKSAGGS [r16_284_TrROS_Hall] | 1.74 ± 0.18 | 1.7 ± 0.36 | 1.51 ± 0.12

From the supplement of paper PMC12764529
